Assay results: patent US20180369322A1

Legend:
monkey plasma proteins = assay: equilibrium dialysis, drug at 10 and 100 µM, monkey plasma
rat plasma proteins = assay: equilibrium dialysis, drug at 10 and 100 µM, rat plasma
human plasma proteins = assay: equilibrium dialysis, drug at 10 and 100 µM, human plasma

Measured: in vitro plasma protein binding

R5000 (peptide)
> 99.9%: all assays above
